{"source": "patent US20250295734A1", "about": "“ANTICOAGULANT PROTEINS AND THEIR USE FOR TREATING DISEASES ASSOCIATED WITH THE ACTIVATION OF NEUTROPHILS” (BIOXODES, priority 2018, published 2025)", "key": {"[1]": {"test_system": "neutrophil elastase activity", "assay": "Laser-induced vessel wall injury: neutrophil elastase activity", "format": "in vivo, mice (C57BL/6JRj)", "settings": "iv bolus 20.5 mg/kg + infusion 3.7 mg/kg/h", "procedure": "(§1) Ir-CPI was administered intravenously as a bolus (20.5 mg/kg) immediately followed by a continuous infusion at a rate of 3.7 mg/kg/h (see Table 1 below). Due to fast distribution and elimination of Ir-CPI in the mice (t1/2α=14 min and t1/2β=236 min), the combination of the bolus and the infusion was chosen in order to maintain a constant Ir-CPI concentration into the blood.\n(§2) Vessel wall injury was induced with a Micropoint Laser System (Photonics Instruments) focused through the microscope objective, parfocal with the focal plane and aimed at the vessel wall, as previously described (Dubois et al., 2006). Typically, 1 or 2 pulses were required to induce vessel wall injury.\n(§3) Multiple thrombi were studied in a single mouse, with new thrombi formed upstream of earlier thrombi to avoid any contribution from thrombi generated earlier in the animal under study. Laser-beam injuries were done at various time after the start of test-item administration (+5 min up to about 150 min after bolus administration of Ir-CPI or NaCl (control)).\nImage analysis was performed using Slidebook 4.1 (Intelligent Imaging Innovations). Fluorescence data were captured digitally at up to 50 frames per second and analyzed as previously described (Falati et al., 2002). The kinetics of thrombus formation were analyzed by determining median fluorescence values over time in a minimum number of 20 thrombi. […]"}, "[2]": {"test_system": "thrombin generation induced by ellagic acid (intrinsic pathway activator)", "settings": "cited from earlier work"}, "[3]": {"test_system": "thrombin generation induced by TF (extrinsic pathway activator)", "settings": "induced by low concentration of TF (5 pM); cited from earlier work"}, "human neutrophils": {"test_system": "human neutrophils", "assay": "Apoptosis/necrosis assay (Annexin V / Propidium Iodide)", "format": "cell-based", "settings": "recombinant Ir-CPI 15.3 μg/mL (2 μM); 1 h incubation; 4 donors", "procedure": "The effect of recombinant Ir-CPI on apoptosis/necrosis of human neutrophils was assessed. For this purpose, freshly isolated neutrophils from 4 donors were pre-treated for 1 h with recombinant Ir-CPI at 15.3 μg/mL and then incubated with Annexin V-FITC, with Propidium Iodide (PI) and with anti-human CD66b-PE antibody for cell identification. As negative control, neutrophils were only incubated with Annexin V-PI and CD66b for cell identification.\nPolymorphonuclear neutrophils (PMNs) were isolated with StraightFrom® Whole Blood CD15 MicroBeads kits from Miltenyi Biotech. Briefly, after erythrocytes lysis, the blood cells were incubated in the presence of CD15 microbeads. Blood cells were washed with separation buffer and centrifuged at 300 g for 10 min at room temperature. The pellets containing magnetically labeled cells were resuspended in separation buffer and applied to the equilibrated whole blood column placed on the QuadroMACS. After extensive washing, the column was removed from the magnetic separator, and labeled cells were eluted using whole blood elution buffer. Finally, the PMNs were centrifuged at 300 g for 10 min and resuspended in Hank's buffer with calcium and magnesium. […]\nApoptosis was detected by initially staining the cells with Annexin V and Propidium Iodide solution followed by flow cytometry analysis. […]"}, "FXII zymogen": {"target": "T1, FXII zymogen (Homo sapiens, UniProt P00748)", "T1 sequence (P00748 20-615)": "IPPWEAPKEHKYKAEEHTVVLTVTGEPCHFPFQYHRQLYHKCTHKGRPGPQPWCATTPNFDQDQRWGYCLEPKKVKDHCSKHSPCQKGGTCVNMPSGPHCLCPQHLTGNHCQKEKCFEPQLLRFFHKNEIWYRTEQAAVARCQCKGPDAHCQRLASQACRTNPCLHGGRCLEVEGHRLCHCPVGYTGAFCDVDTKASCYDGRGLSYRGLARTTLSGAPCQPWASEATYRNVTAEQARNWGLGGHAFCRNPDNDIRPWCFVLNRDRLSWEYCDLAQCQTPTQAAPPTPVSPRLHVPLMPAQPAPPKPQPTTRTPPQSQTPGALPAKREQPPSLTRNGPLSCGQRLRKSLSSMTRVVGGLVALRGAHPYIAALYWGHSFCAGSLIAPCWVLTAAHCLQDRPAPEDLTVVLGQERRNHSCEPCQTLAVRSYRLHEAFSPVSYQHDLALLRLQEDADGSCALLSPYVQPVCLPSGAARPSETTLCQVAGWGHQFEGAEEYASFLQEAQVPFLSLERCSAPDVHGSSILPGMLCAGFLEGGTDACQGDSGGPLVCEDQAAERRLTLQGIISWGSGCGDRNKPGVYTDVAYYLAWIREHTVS", "settings": "cited from earlier work"}, "[4]": {"test_system": "polymorphonuclear neutrophils (PMNs)", "assay": "Laser-induced vessel wall injury: PMN accumulation (anti-Ly6G)", "format": "in vivo, mice (C57BL/6JRj)", "settings": "iv bolus 20.5 mg/kg + infusion 3.7 mg/kg/h", "procedure": "as §1, §2, §3\nImage analysis was performed using Slidebook 4.1 (Intelligent Imaging Innovations). Fluorescence data were captured digitally at up to 50 frames per second and analyzed as previously described (Falati et al., 2002). The kinetics of thrombus formation were analyzed by determining median fluorescence values over time in a minimum number of 20 thrombi.\nDetection of PMNs in vivo was performed using PE-labelled anti-Ly6G antibody.\nTo determine whether Ir-CPI has an impact on the accumulation of PMNs at the site of injury, the accumulation of PMNs on the injured vessel wall was monitored using a PE-fluorescently labeled antibody directed against Ly6G (FIG. 5)."}}, "note": "“Also recorded” adds a separate entry of the source."}
{"molecule": "Ir-CPI: Ixodes ricinus salivary gland polypeptide, contact phase inhibitor, MW=7660 Da; sequence SEQ ID NO: 1 or SEQ ID NO: 2 (protein) ANHKGRGRPAKCKLPPDDGPCRARIPSYYFDRKTKTCKEFMYGGCEGNENNFENITTCQEECRAKKV", "values": [{"measurement": "signal corresponding to neutrophil elastase activity compared to control mice", "setting": "[1]", "result": "drastically reduced"}, {"measurement": "thrombin generation", "setting": "[2]", "result": "strong dose-dependent reduction"}, {"measurement": "thrombin generation", "setting": "[3]", "result": "quite inactive"}, {"measurement": "induction of apoptosis", "setting": "human neutrophils", "result": "did not induce apoptosis"}, {"measurement": "mean necrotic, dead, apoptotic, and live cells vs negative control", "setting": "human neutrophils", "result": "no statistical difference"}, {"measurement": "binding to FXII zymogen", "setting": "FXII zymogen", "result": "but not to their zymogen forms; also recorded: unable to bind directly"}, {"measurement": "maximal median of integrated PMN fluorescence (anti-Ly6G)", "setting": "[4]; at T 261 sec", "result": "3.02×10^6 AU"}, {"measurement": "median of integrated PMN fluorescence", "setting": "[4]; at T 270 sec (end of measurement)", "result": "2.78×10^6 AU"}, {"measurement": "PMN accumulation compared to control mice", "setting": "[4]; first 4.5 min after laser injury", "result": "drastically decreased"}]}
